Molecular target: human PDL1 stably expressed on CHO cells (human) (UniProt Q9NZQ7)
Sequence (Q9NZQ7 19-290 limits assumed): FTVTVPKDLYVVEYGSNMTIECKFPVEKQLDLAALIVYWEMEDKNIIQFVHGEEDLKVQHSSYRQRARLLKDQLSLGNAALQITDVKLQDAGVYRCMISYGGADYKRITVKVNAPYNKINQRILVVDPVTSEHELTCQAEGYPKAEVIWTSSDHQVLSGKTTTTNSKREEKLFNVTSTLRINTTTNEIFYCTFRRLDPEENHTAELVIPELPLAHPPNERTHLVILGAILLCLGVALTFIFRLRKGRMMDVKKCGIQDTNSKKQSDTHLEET

Work on “Reference Ab 1 (analog of MPDL3280A) (antibody)” yielded an EC50; NFAT luciferase reporter (RLU), CHO cells with human PDL1 co-incubated with Jurkat cells with human PD1 and NFAT reporter, blocking of PDL1/PD1 of 0.0532 nM.
